# Data reported in the RNAGym collection of RNA variant scans (doi:10.1073/pnas.2313332121).
# B1: TPR t1 (parent)
# chain: GACCAAUCUGCCCUCAGAGCUCGAGAACAUCUUCGGAUGCAGAGGAGGCAGGCUUCGGUGGCGCGAUAGCGCCAACGUCCUCAACCUCCAAUGCAUCCCACCACAUGAUGAUGCCUGAAGAGCCUUGGUUUUUUG
# Variants of: B1
# Assay: polymerase ribozyme fitness, log enrichment relative to wild type (log ratio); higher = more active; in vitro selection for triplet polymerase activity
# Procedure, shortened: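 In triplicate, a single round of in vitro selection was run on each mutant library, PCR-built and transcribed, covering one subunit of a heterodimeric triplet polymerase ribozyme. Frozen incubation at −7 °C followed annealing with a biotinylated primer, partner subunit and triplets, and extended constructs were then gel-excised, streptavidin-captured and taken through RT-PCR. Fitness is the logarithm of genotype enrichment over wild-type enrichment, from inverse-variance-weighted replicate averages of Illumina-sequenced inputs and outputs. […] only genotypes with ≥10 input reads and ≥1 read per output were kept.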
row,Variant,polymerase ribozyme fitness (log ratio)
1,A111G G117U,-4.12
2,A29G A46C A50G U54C G120U C123A U129C,-4.1
3,U78C G120U,-0.256
4,C15G A37U G48U G77U G122A,-4.17
5,U38A C53G C88G G120A C123G,-1.3
6,C13G C49U C82A C124G U125A,0.252
7,C114G G120U,-3.34
8,G69A U129A,-3.9
9,G71C A118U C124G,0.835
10,G44C C64U,-0.652
11,C11U A18U,-1.98
12,C8G G42U G45A C56U,-0.791
13,G69C U96C,-2.24
14,U9A C40G G71U,-0.173
15,C53G A83C,-1.33
16,G17U A37U G47U,-5.29
17,G63U G113U,-4.29
18,C20U C28U C72A C94U,-1.9
19,U55C A66G A90U,-4.46
20,G44U A68G U92A A119U C124U,-6.31
21,A43U C56U C79A,-3.22
22,A2U U9A C11G A24U G36U C56G C123G,-7.43
23,A24G C28G G48U C64U,-6.05
24,A2G C12U A43U G44U C115U,-2.29

row,Variant,polymerase ribozyme fitness (log ratio)
1,C73G C85G G120A,-2.18
2,C13U C115U G117C,-6.41
3,G44U C64U,-1.48
4,C22U C40U G57U,-5.18
5,A50U U109A,-5.95
6,C89U,-0.195
7,C20A U92G G122U,-4.6
8,G61C G71A,-4.05
9,G60U A84G G128A,-1.56
10,G47A U54C U59A,-0.546
11,U7G G52C A90C U130A,-1.64
12,U14A G47A C102A A121C,-2.83
13,G63A C104U C114G,-4.92
14,G113U G120C G128U,-4.07
15,C8A U54A C62U G110U U125C,-1.99
16,U54A C73A C88A,-0.61
17,U9G A121G U131A,1.98
18,C20U U21G C49A C98U,-4.2
19,C22U G52C,-4.83
20,C12U C72U C86U U112C,1.05
21,A5C C8A C28U U54C A84G,-3.62
22,G61U C79U,0.149
23,C56G C70U C88U U106A,-2.44
24,G36U C53U A105C,-2.88

row,Variant,polymerase ribozyme fitness (log ratio)
1,C89U U129G,-1.72
2,C28U U59G C86G C89U,-4.05
3,G93U U109C,-5.62
4,G10U G42U A91C U106A U112A,-0.271
5,C70A C86U,-1.81
6,G120U U133A,0.165
7,G36U C56G C82U G113A,-2.31
8,C40A A46U G69U C80U G110A U112G,-7.41
9,U21C A29G A37U G71U,-1.56
10,G23A G69U C115U C123G,-6.34
11,C40G A100U C101A,-3.4
12,C15G A119G,0.41
13,C40A G71U C115G C123G,-5.05
14,G52A C102U G120A,-1.56
15,C20A C34G C85U A90C G120C,-5.64
16,G47A C56U U78A C124A U131A,1.41
17,G44C U116G C124G,-3.04
18,C11U C123G,1.73
19,C64G U87A C124A,-5.74
20,G39A G45A,-1.29
21,C8A C49U C73G,-1.1
22,C3U C11A G47A G110U,-3.77
23,A27U U54C G61U G107C U109C G110C,-7.69
24,G122A C124G,1.86

row,Variant,polymerase ribozyme fitness (log ratio)
1,U30C C49U G63C G77A,-6.71
2,C73G A75U A83U,-1.08
3,A103C G113C,-5.94
4,G39C C70U U112G,-2.08
5,G127C,-1.03
6,C49G C123G,1.3
7,G45U C123A,-0.805
8,C70G A111G,-3.21
9,C15U G71C,-1.05
10,G93C C101U C104A,-1.95
11,A46G A74G U92C,-0.91
12,U30G C34G G35C A41U C53U C76U C124G,-8.38
13,U14A U33G A37U G42U G61C U109A,-6.69
14,G48C U55C A95C C98U,-3.28
15,C40A G52U G63U U112A,-2.78
16,C72U U81C U116A,-3.5
17,C15A C49U A90U A108G C114G,-6.22
18,A46C U78A,-0.208
19,U9G A43U G52U C72A C82A,-2.31
20,U7G C49A,0.309
21,C123U U132A,2.23
22,G42A C82A A91C C115G,-4.43
23,U14G C89A C99G G113C C115U,-7.29
24,C62A U78C U112A U116A,-3.11

row,Variant,polymerase ribozyme fitness (log ratio)
1,A18U G52U U133A,-3.89
2,C70U C76U G113C C123A,-5.89
3,C8G C114A G135U,-0.31
4,A6U G117U,-2.79
5,U7G G52A C85A U87G,-1.55
6,G35U C64U U78C,-5.42
7,G17U C28U G39A G110A,-2.46
8,A18C G48A,-2.74
9,G42A U54C G57A,-3.66
10,A37U A50U G63U G120U U126A U130A,-5.22
11,C53G C102U U112A G120U,-4.93
12,A46U C73G U133G,-1.42
13,A91U U116G G120C G128U,-4.65
14,U21C U38G C49A G120U U130G U131G,-4.41
15,U87A A108C G110A,-6.14
16,C13U G69A C82U,-2.59
17,A6C C15G A46C G107U G117C,-4.61
18,A2C U96A,-3.03
19,U14C G110A,-2.2
20,G48U U106C G117C,-5.18
21,C40A G77C,-1.98
22,C12U G47U A119C C123A,-2.6
23,G61C U78C,-2
24,G60C C88U,-0.669

row,Variant,polymerase ribozyme fitness (log ratio)
1,G45A G113A,-1.71
2,G36U G69A U81A,-3.96
3,G48C G93A,-1.82
4,A6C C40A C62U C88A C104A,-5.43
5,C13U C20A,-2.74
6,A27C C56U,-2.85
7,C13A A43G,-3.45
8,C101G A121C,-0.583
9,G47U C102U,-3.31
10,G10A C88A C123U,1.69
11,G69A U87C,-2.12
12,C13U G69U C124U G135C,2.21
13,A6G C13U C72U C102U G122A,-2.6
14,C11U G17C C49A G58C,-6.04
15,A41C G44A G58C G93C,-1.87
16,G57C U112G,0.543
17,G19C C62U U112G,-6.55
18,U54C C64U G77U G113C U132A G135U,-3.36
19,C4U A37G,-0.871
20,C11G C20G A24G U116C,-6.56
21,G10C C115A G128A,-3.1
22,A6G G10C U112A,-0.0126
23,U59C U109G,-5.76
24,A37U U59A G61C G93U A95G U130G,-5.82

row,Variant,polymerase ribozyme fitness (log ratio)
1,A6U A16U,-1.42
2,C8U G77A,0.143
3,C70U U96C C99U C102U,-6.59
4,U9G G71A,-0.592
5,U14C G58U C70U G71U,-3.19
6,C11U C40G C53U C73G C79A C86U,-4.32
7,C40G C79A,-2.58
8,U9A G47U C79A A83C,-3.93
9,U7C G42A C76U C101U G120C C123A,-3
10,A16G U109C,-5.19
11,G93A C98A,-5.11
12,C8U C12A C72U G117C,-1.86
13,G48C C79U,-1.34
14,C97G U112A,-3.48
15,G51U C124G,-1.68
16,G23U G44C C53G C94A U106G G113A,-7.53
17,G10C U32C G113U,-3.81
18,G61C G77C C79U,-0.228
19,U21C C56U,0.0213
20,G57A A90C C104A G113C G117C,-6.59
21,C11U G23A G61A G113U,-6.08
22,A50U C73U G117C C123A,-5.84
23,C12G C73U,-0.295
